# Assay: label from the status in PepcDB records
row,Sequence,protein production
1,MQRGDISMTKRKDIHFRIEEKLLERFESALHYEGLKKTDVLTHAIQQFCMKVEYEKMNDVKRQYSVSNNLQTRIDTHKHYEEKQVNLDEIVIEHLQLQGRERILEVGCANGKFLSLLQANGHKGQLTGFDQSEAMLSEATKTNNLIEWRLGDAGKLPFEANYYDLIVARHMLYHMKDVEKTIQGFHKVIHPGGSLLATTNSNVTLPRIVEMCNRMLDTFDLPKTTSSVTPFCLENGKEILQSVFPTVEVSVIHNALVFHHATPIVNYISSMFPSLNIPDNTLLHAEMKDWLKEEVENELLLHNGIWRDPKTLAIYRCQKEKS,failed
2,MQRKGDTPATLDLFADQTPQPRRDEQIGPGSWLFSGFALPAMPTLLLALEQTLGHSPFRHMLTPGGLSMSAALSSCGPLGWITDRHGYRYSDVDPQTGQPWPAMPDAFMQLAQSAALAAGYRGFVPDACLINRYIPGAKMSLHQDKDEHDHRWPVVSVSLGIPAIFQFGGMQRSDKTRRISLFHGDVVVWGGEDRLRFHGILPIKQAEHPLLGEQRINLTFRKAGRDSLEHHHHHH,not failed
3,MQRLEVREPVPYPILVGEGVLKEVPPLAGPAALLFDRRVEGFAQEVAKALGVRHLLGLPGGEAAKSLEVYGKVLSWLAEKGLPRNATLLVVGGGTLTDLGGFVAATYLRGVAYLAFPTTTLAIVDASVGGKTGINLPEGKNLVGAFHFPQGVYAELRALKTLPLPTFKEGLVEAFKHGLIAGDEALLKVEDLTPQSPRLEAFLARAVAVKVRVTEEDPLEKGKRRLLNLGHTLGHALEAQTRHALPHGMAVAYGLLYAALLGRALGGEDLLPPVRRLLLWLSPPPLPPLAFEDLLPYLLRDKKKVSESLHWVVPLAPGRLVVRPLPEGLLREAFAAWREELKGLGLLR,not failed
4,MQRLNLGCGQYPKAGFLNVDVDPLAKADVFHDLSSFPYPFEDARFDLVEMDHVLEHLPSPRDAMREIWRILKPGGTLRLRVPHFSRGFSHYDHKCGFDVTFPLYFDPTFPGGYTGIPFEHVQTRLVWFAQPWLKRQVLGNFAFNVGKMLGMVFDALGNIAPLATSRLFCFWVGGYEEITFELRRPTNTLEHHHHHH,not failed
5,MQRLQASLERRQVGIYFAAMALGAVLAWHRPGLQVGEATLNLMLAGMLLATFMQVPLAGWRATLPGMRFLGVLLSVNFVLVPALVWGLAALLPADPMIRLAVLLVLLAPCIDYVVTFAQLGRADARALLAATPVLLCGQMLLLPLYLNVMLGSDAAALIRPGPFVQAFVWLIALPLAAATGVQWAAARSAAWRGAASVVGLLPVPATALVLATIVAAVAPRMALAGEAVSRVVPVYLLFAVIAPAAGWLAARRARLAAPQARAVAFSAGTRNSLVVLPLALAVPGGVPLLPALIVAQTLVELCAELLYVRVFGRAGKDRAGEG,failed
6,MQRTAVLPYVQLLKPITWFAPMWAFGCGLISSGLPVWDRWPVIALGVLLCGPLVCGTSQAVNDWFDRHVDAINEPDRPIPSGRIPGRVGLYIAIGWTVLSLAVAWVLGPWVFGAAIFGLALAWAYSAPPFRLKGNGWWGNSAVGLCYEGLPWFTGAAVIAGALPDTRIVLLAVLYSIGAHGIMTLNDFKAVEGDIRMGVRSLPVQLGVAPAARLACAVMAVPQMVVIGLVASWDRPYHAGAVGLLLLAQFVLMARLLKRPRELAPWYNATGTTLYVIGMMVSAFALAPLIGAVELAPLIGAAP,failed
7,MQSDKVLNLPAGYFGIVLGTIGMGFAWRYASQVWQVSHWLGDGLVILAMIIWGLLTSAFIARLIRFPHSVLAEVRHPVLSSFVSLFPATTMLVAIGFVPWFRPLAVCLFSFGVVVQLAYAAWQTAGLWRGSHPEEATTPGLYLPTVANNFISAMACGALGYTDAGLVFLGAGVFSWLSLEPVILQRLRSSGELPTALRTSLGIQLAPALVACSAWLSVNGGEGDTLAKMLFGYGLLQLLFMLRLMPWYLSQPFNASFWSFSFGVSALATTGLHLGSGSDNGFFHTLAVPLFIFTNFIIAILLIRTFALLMQGKLLVRTERAVLMKAEDKE,not failed
8,MQSGDGRRGRLRIFFGFAAGVGKTYGMLTEAHELLMMGKHVVVGYIEPHDRPDTNRLLEGLPQIPPKNIFYKQMVLTEPDIDQIIQQKPEIVLIDELAHSNAEGSRNRKRYQDIDELLNAGIDVFTTVNVQHIESLNDIVEEVTGIEVKETVPDTFLRQATIRVIDVEPDELIERLEQGKIYANENAKRALKNFFIPQKLDQLRGLAIQRASDHINRISGKTIGIQSKLLTVVNDAFPKMTEKCIRWTARLAQGLVVDWTVIQVRTQENTPTNIPLADKLGAEVISIEEDDSFETIVEFAKMTGVTDIIMGKNLRQPWYEKIFIEAFDDRLLKRLKDTELHLIPFNEEKRSLFFKTRKVIEGGGKDLVIAIGGVFLATVVTELMQYIHVGDQNLMLIYISFVLLVARTTSGYFWSSLSSILSVLSFNWFFVEPLYSLTVYKQGYPFTLLLMLVVALMSSNLMIRLKKQADTSMKKEHQMEILYELNKRYVLVESRKQILDISATYLSRLLEREVIIFDRQVKTESVHCINEKKSILNNEDEAAVAFWAAKNQKEAGNGTDTLNGAKGFYLPIAAGRKTLAVLGIERNADLDLENDQLNYLKLVLTQIAVILEQTELKDEKEQVELENEREKVRSNLLRAVSHDLRTPLTVISGIAETLGIGNDLKEETQRKLLKDIQEESQWLIRMVENLLSITRINMDTMKVNKTAEPVEEVIEAVYKHLRKVYPDGQVDIHLPEEVIFIQADPILIEQALFNLIENAFRHGENDLPVKLNVYQEKEQTVFEIENHGEIPLKQFQKIQSNLSGTNEVPVDSKNGLGIGLSIVKTIVHAHNGKMEMTIGRGKTLVRIYLK,failed
9,MQSKGATGSKSEQRTGLLNGVAAYGMWGLVPLYWPLLKPAGAVEILAHRMVWSLALVAVALLVMRRWAWAGELLRQPRKLALVTVAAAVITVNWGVYIWAVNAGHVVEASLGYFINPLVTIALGVLILKERMRPWQWAAVGVAFTAVVVLTVGYGQPPWISLCLAFSFGTYGLVKKKVNLGGIESLAAETAIQFLPALAYLLWLTASGGSTFGTQGGAGHAALLASTGVVTAIPLVCFGAAAIRVPLSTLGLLQYLAPVFQFLLGILYFHEAMPPERWAGFALVWLALSLLTWDALRAAHRASRALRTAPSRIVADEQITPVYEHP,failed
10,MQSSSSLAPVAPIIFLAIAIAAINWIDLARGKNRTSVAYPLSLLTTLVLTAWFGIDAAGGETHYAFANLVVIDPMANVLAAFCSLGMLLTLIYTRSYLAERDMFAGEFYMLALFTLGGQIVMITGNNFLTLYLGLELLSLSSYALVALRRDSRVTSESAIKYFVLGALASGFLLYGMSMMYGATGSLNLGEVFRVVESGRVNTTMLAFGVVFIVAGVAFKLGAAPFHMWIPDIYQGSPTAVTLLIAAGPKVAAFALIIRLLVEGLLPLATDWQVMLVILSIASLVIGNLTAIVQTNLKRMLAYSTISHMGFVLLGMLSGVVANKADGAVNAYSSSMFYSITYMLTTLGTFGLILVRTRKGFEAETLDDLKGMSRRHPWFAFLMLVMMFSMAGIPPTVGFYAKLSVLQAVVSAGMSWLAVLAVVFSLIGAFYYLRIVKLMYFDAPVGEEPLEASTGLRSVLSLNGLAVILLGLFPAGLMDLCFQAIRATLAS,failed
11,MQSTAFSLYIIDTLHDSLIFATILMSALLPKIILGPLGGVFVDWFDRKKFLVVIDLISGVLLLISALVYGNNLSLPIIYFICISLGIMNSVDEPLVVALIPSLVEKEKLVTANSINMFSTALGNIIGPILGAVVYSSFGIDTILYINASSFIIGAILEFMINIENKKKISQSKTIFNFLEDFKAGLIYIVRNRIILVIVVSIFFQNFFFNGATTVGVPFLAKQILKVSNAEFAILETTLIVGSIFGLLVASNLIKDKPLASLFPKLLFVISVCFLMIGLICIFLLKKQLMAYVFIAIIYICLGMLSMNVNVLFQTEMQKIVDESMFGRVSSLILSLIMSSIPLGQLVYGYLFKVVSPSIPFLVTFIAICCVSTLFSLSLRNSEL,failed
12,MQSTIVIVNLLGAVALLLFGLAQVKDGVTRAFGMKLRSVLATGTQNGPRSFFSGFFATVALQSSTATALTVASFAERDLIKPRMAQVVLLGANVGTAVTAWIVAAGVEWLSPLLILAGIILKKGSSNARQGGGTAVIGIGLMLLSLHLLSGATEPMRASPALGVFIGLLDGAWPVALIFSAVLAFVSSSSLAVVVLILSLTATGTLSTGLIIVLILGANLGGAIPPVIATLSGPASARRITIGNLVVRTIGCLIAMPLASYGATYLQQLPLSPAKLPVDAHLIFNLILATLAWPFSGLISDLMAKLVPGDPKAEDGPNFLDQQALDVPVVALANATREVLSVGDSIERMLIRAENAFKHNDLAPLQEVALLEKKVDRRQQEVKVYLSQLGRKGLTDEEARRSIAIIDYAINLEHIGDIIEKGICEQIRKKVLNSFKFSDDGYEELKTLFDMTIENLRAAQSILVTGDFELARRLMESKVDIRRLEKQSSNRHLERLRDGLAESMQTSSLHLDMLRDLKRINAHIVTVAHPILDESGVLIESRLRYAEPRA,failed
13,MQTASRAHADSRHGLFLILFSAMLWGTVGITTKALYGLADTTPLSIGFFRLALAVPVLVAACRLATGPAMFRVARRDLGTMIVVGAMTALYQVCYFAAIRQIGVAAATLVTLCTAPVIVALLSAILTGERPSGRVLLSLACALAGTALLVGLRPLAGEGGNIPLGIAQALGSAFSYASVTVASRTLAGRYHPLQPVAIGFAAGALFLLPTALADGLVLTYPAAGWVLLLYLGVVPTALAYALFLAGMRTTTATAASICTLLEPLVSTVLAWLIFGERLGPLGAVGAVLLFGAIGLLARPVRRRQSSAA,failed
14,MQTFVLATNSETVSQTLCSYLEGVLDLEDSVYAVNSQPGGDRTPPDAVADGKAALEVVSDRLGDQVSVETYQIIRGNSPADDIFDIAAEVDADELVIGVRKRSQTDRLIFGSVAQDIMRQSDYPMRVVPRD,failed
15,MQTIIRVEKLAKTFNQHQALHAVDLNIHHGEMVALLGPSGSGKSTLLRHLSGLITGDKSVGSHIELLGRTVQREGRLARDIRKSRAHTGYIFQQFNLVNRLSVLENVLIGALGSTPFWRTCFSWFTGEQKQRALQALTRVGMVHFAHQRVSTLSGGQQQRVAIARALMQQAKVILADEPIASLDPESARIVMDTLRDINQNDGITVVVTLHQVDYALRYCERIVALRQGHVFYDGSSQQFDNERFDHLYRSINRVEENAKAA,failed
16,MQTLLPLLARGAVLSPFKRPRPDAAFPHSRLVLSGVRIDLARLAAYERACGFPTGADALPLTYPHVLGFPLAMRIMASRAFPLPLLGLVHTSIEVTRLREPAATGEYELAVHVEGLTPHRRGTEATVVTGARVDGSLVWESRSTYLARHRRATDARTPADARTATDARTPADARTATDARTAADARTAAPVPSAEPKPLPVVAEWRLAADVGRRYAAVSGDRNPIHLHPLTARLFGFPRAIAHGMWTVARCLAEQPADASVQLRAEFKSPVLLPGTVTYAADGGRFELRGGERVHLTGELREYRANSA,failed
17,MQTQFQFINDCLIENQPLWRFEPFQSSIQPSLPWQETHPQLCQWLESLSPSQIETLKADPDLALDEISVFLPDLPSLLRHTQLESMALDGLALERGLDSGIPGRKLEQITAMGEAAIQSHQGEEWLEWCSGKGYLGRILTTQTNQPVTSFEYQQALCDSGQQAANEHHWKMTFIQGDAFDPQTKAVFKPTQHAVALHACGDLHVRLMEYGSEAGIAAMTISPCCYHLIQSETYQALSQSVRASELILSKHELRIPLQQTVTGGERVRRHRQQEMVFRLGFDLLTREILGVDEYQPVPSIRKSQLSDGFEALCLWVAKEKGIEINQAIDFAEFEKRAIKRFWHMERMSLVQLVFQRPLEIWLALDKVLYLEERGYRVRLAEFCPKSVTPRNILICAYKN,failed
18,MQTQVLFEHPLNEKMRTWLRIEFLIQQLTVNLPIVDHAGALHFFRNVSELLDVFERGEVRTELLKELDRQQRKLQTWIGVPGVDQSRIEALIQQLKAAGSVLISAPRIGQFLREDRLIALVRQRLSIPGGCCSFDLPTLHIWLHLPQAQRDCQVETWIASLNPLTQALTMVLDLIRQSAPFRKQTSLNGFYQDNGGDADLLRLNLSLDSQLYPQISGHKSRFAIRFMPLDTENGQVPERLDFELACC,not failed
